These results are taken from US20250262210A1 (TRUSTEES OF COLUMBIA UNIVERSITY IN THE CITY OF NEW YORK, published 2025).

In this experiment the target is T1, KIAA1468 (human, UniProt Q9P260 2-1216, limits assumed).
T1 sequence (looked up): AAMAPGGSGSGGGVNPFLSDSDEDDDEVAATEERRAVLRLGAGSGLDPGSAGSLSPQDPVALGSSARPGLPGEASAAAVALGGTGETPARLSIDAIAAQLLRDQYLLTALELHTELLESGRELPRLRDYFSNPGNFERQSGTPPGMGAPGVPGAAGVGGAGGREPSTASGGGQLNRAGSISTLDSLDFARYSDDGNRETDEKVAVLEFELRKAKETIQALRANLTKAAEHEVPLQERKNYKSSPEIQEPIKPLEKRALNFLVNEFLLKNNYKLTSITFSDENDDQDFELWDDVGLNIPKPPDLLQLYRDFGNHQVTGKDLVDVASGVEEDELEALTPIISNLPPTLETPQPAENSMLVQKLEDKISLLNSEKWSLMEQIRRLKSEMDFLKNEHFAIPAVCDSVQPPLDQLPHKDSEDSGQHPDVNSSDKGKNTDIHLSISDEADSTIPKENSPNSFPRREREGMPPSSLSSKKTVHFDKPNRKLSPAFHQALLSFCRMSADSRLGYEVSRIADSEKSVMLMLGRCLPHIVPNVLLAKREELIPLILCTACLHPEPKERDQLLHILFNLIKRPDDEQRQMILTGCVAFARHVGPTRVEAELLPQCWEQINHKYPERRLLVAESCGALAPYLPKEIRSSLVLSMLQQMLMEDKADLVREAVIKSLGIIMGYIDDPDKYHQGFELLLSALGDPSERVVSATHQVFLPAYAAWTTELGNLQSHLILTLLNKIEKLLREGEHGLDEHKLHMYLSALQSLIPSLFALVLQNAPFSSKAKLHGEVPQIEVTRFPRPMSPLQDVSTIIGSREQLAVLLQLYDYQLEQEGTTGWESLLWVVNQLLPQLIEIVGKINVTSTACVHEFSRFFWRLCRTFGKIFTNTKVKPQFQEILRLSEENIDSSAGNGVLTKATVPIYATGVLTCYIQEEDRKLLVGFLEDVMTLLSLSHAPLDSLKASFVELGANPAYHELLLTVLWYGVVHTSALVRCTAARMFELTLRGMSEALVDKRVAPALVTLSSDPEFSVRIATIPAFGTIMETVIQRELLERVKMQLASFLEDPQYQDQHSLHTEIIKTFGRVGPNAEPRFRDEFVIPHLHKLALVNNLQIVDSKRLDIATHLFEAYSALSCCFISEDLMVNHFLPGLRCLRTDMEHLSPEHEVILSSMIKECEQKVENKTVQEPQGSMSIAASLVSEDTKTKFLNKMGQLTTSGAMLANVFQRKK
Kind of experiment: IP/MS, LZTR1 wild type-FLAG, U87. The gist of the method:
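Gel slices were reduced with 5 mM DTT, alkylated with 11 mM IAA and digested overnight at 37° C. with trypsin. Peptides were analysed on an Orbitrap Fusion Tribrid by LC-MS/MS.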

B1: LZTR1-FLAG (other, human, UniProt Q8N653 1-840, looked up)
chain: MAGPGSTGGQIGAAALAGGARSKVAPSVDFDHSCSDSVEYLTLNFGPFETVHRWRRLPPCDEFVGARRSKHTVVAYKDAIYVFGGDNGKTMLNDLLRFDVKDCSWCRAFTTGTPPAPRYHHSAVVYGSSMFVFGGYTGDIYSNSNLKNKNDLFEYKFATGQWTEWKIEGRLPVARSAHGATVYSDKLWIFAGYDGNARLNDMWTIGLQDRELTCWEEVAQSGEIPPSCCNFPVAVCRDKMFVFSGQSGAKITNNLFQFEFKDKTWTRIPTEHLLRGSPPPPQRRYGHTMVAFDRHLYVFGGAADNTLPNELHCYDVDFQTWEVVQPSSDSEVGGAEVPERACASEEVPTLTYEERVGFKKSRDVFGLDFGTTSAKQPTQPASELPSGRLFHAAAVISDAMYIFGGTVDNNIRSGEMYRFQFSCYPKCTLHEDYGRLWESRQFCDVEFVLGEKEECVQGHVAIVTARSRWLRRKITQARERLAQKLEQEAAPVPREAPGVAAGGARPPLLHVAIREAEARPFEVLMQFLYTDKIKYPRKGHVEDVLLIMDVYKLALSFQLCRLEQLCRQYIEASVDLQNVLVVCESAARLQLSQLKEHCLNFVVKESHFNQVIMMKEFERLSSPLIVEIVRRKQQPPPRTPLDQPVDIGTSLIQDMKAYLEGAGAEFCDITLLLDGHPRPAHKAILAARSSYFEAMFRSFMPEDGQVNISIGEMVPSRQAFESMLRYIYYGEVNMPPEDSLYLFAAPYYYGFYNNRLQAYCKQNLEMNVTVQNVLQILEAADKTQALDMKRHCLHIIVHQFTKVSKLPTLRSLSQQLLLDIIDSLASHISDKQCAELGADI
notes: Expressed in HEK 293T, HeLa or U87 cells; used as cell lysate; also called LZTR1 wild type-FLAG; LZTR1 WT; not shown: FLAG tag at the C-terminus
Consider B1, for which the binding result is given as “binds”.
